Source: patent US20220195063A1 (BYONDIS B V, published 2022)
Values belong to the binder of their own block, whether it stands above or below them.

Key:
human SIRPγ (huSIRPγ) [1] = biological target: T1, human SIRPγ (huSIRPγ) (human, UniProt Q9P1W8 29-360, limits assumed, biotinylated in the SPR assay); experiment: SPR, biotinylated antigen captured, 25 C
T1 construct: Coated on the plate in ELISA, biotinylated and captured in SPR
Method: (§1) Surface Plasmon Resonance (SPR) assay: Affinity analysis was performed by single cycle kinetics analysis on a Surface Plasmon Resonance apparatus (Biacore T200 system, GE Life Sciences) at 25° C. Biotinylated SIRP antigens were captured on the surface of a chip suitable for biotinylated molecules (Sensor Chip CAP, GE Life Sciences) by injecting 5 μg/ml of the SIRP antigen in running buffer (10 mM HEPES buffer at pH 7.4 with 150 mM NaCl, 3 mM EDTA and 0.005% v/v polyoxyethylene (20) sorbitan monolaurate (Surfactant P20) for 60 sec at 10 μL/min after injection of a streptavidin conjugate (20× diluted biotin CAPture reagent, GE Life Sciences) for 60 sec at 10 μl/min. Baseline stabilization was set at 1 min after which five increasing concentrations of an anti-SIRP antibody in running buffer (10 mM HEPES buffer at pH 7.4 with 150 mM NaCl, 3 mM EDTA and 0.005% v/v polyoxyethylene (20) sorbitan monolaurate) were injected. For each step an association time of 150 sec was used, followed by a dissociation time of 1200 sec at the highest concentration only, all at a flow rate of 30 μL/min. Regeneration was performed with 6 M guanidine-HCl, 0.25 M NaOH solution (60 sec with flow rate of 30 μL/min). Double blank subtraction was performed on the observed sensorgrams using a non anti-SIRP (blank) immobilized reference flow channel and running buffer injection. Sensorgrams were fitted with a 1:1 Langmuir model for all tested anti-SIRP antibodies. The kinetic parameters (kₐ, kd and KD) were calculated using the Biacore T200 evaluation software (v3.1).

[2] = biological target: T2, human SIRPα1 (huSIRPα1), protein antigen (human, UniProt P78324 31-370, limits assumed, biotinylated in the SPR assay); experiment: SPR, biotinylated antigen captured, 25 C
T2 construct: Coated on the plate in ELISA, biotinylated and captured in SPR; also called v2
T2 sequence (P78324 other isoform, or with tags, fused parts or gaps limits assumed): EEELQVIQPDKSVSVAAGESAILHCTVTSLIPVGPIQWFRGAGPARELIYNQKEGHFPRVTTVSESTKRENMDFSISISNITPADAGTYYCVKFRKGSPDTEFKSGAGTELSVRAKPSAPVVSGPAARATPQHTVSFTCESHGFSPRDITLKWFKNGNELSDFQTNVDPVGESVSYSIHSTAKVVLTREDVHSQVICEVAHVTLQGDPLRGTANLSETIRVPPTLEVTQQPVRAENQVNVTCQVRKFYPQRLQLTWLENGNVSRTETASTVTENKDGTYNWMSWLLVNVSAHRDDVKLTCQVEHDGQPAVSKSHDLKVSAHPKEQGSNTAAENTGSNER
Method: as §1

human SIRPγ (huSIRPγ) [3] = biological target: T1, human SIRPγ (huSIRPγ); experiment: ELISA, antigen coated
Method: (§2) ELISA assay: Solutions of huSIRPα₁, huSIRPαBIT, huSIRPβ₁ᵥ₁, huSIRPβ₁ᵥ₂, huSIRPγ and cySIRPα in phosphate buffered saline (PBS) were each added to a multiple well black polystyrene plate for ELISA and allowed to adhere for 1 h at RT. Unbound protein was removed with three washing steps using standard washing buffer. Subsequently, blocking buffer was added to the wells. After 1 h incubation at RT, the wells were washed three times with standard washing buffer. The antibodies in buffer at various concentrations were added to the wells and incubated at RT for 1 h. Unbound antibodies were removed with three washing steps using standard washing buffer. Goat anti human IgG (Fab′)₂:horse radish peroxidase (HRP) in buffer was added to the wells and incubated at RT for 1 h. 3,3′,5,5′-Tetramethylbenzidine (TMB) was added and after sufficient colour development HCl was added. Absorbance was read at 450 nm/620 nm.

[4] = biological target: T3, human SIRPβ1v2 (huSIRPβ1v2) (human, UniProt Q5TFQ8 30-371); experiment: ELISA, antigen coated
T3 construct: Coated on the plate in ELISA; Only the Ensembl protein number is printed; also called huSIRPß1v2
T3 sequence (Q5TFQ8 30-371 limits assumed): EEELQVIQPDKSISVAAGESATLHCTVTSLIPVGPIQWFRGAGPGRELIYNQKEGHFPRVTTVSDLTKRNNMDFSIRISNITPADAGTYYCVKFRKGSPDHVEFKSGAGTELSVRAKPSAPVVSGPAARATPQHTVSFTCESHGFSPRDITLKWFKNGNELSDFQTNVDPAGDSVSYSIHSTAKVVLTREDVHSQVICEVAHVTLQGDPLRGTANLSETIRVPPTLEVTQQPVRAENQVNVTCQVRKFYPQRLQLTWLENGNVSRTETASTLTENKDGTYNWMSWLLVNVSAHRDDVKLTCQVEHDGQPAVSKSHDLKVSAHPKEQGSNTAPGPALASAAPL
Method: as §2

[5] = biological target: T2, human SIRPα1 (huSIRPα1), protein antigen; experiment: ELISA, antigen coated
Method: as §2

[6] = biological target: T4, cynomolgus SIRPα (cySIRPα), protein antigen (cynomolgus monkey, UniProt A0A2K5VYQ9 31-369); experiment: ELISA, antigen coated
T4 construct: Coated on the plate in ELISA
T4 sequence: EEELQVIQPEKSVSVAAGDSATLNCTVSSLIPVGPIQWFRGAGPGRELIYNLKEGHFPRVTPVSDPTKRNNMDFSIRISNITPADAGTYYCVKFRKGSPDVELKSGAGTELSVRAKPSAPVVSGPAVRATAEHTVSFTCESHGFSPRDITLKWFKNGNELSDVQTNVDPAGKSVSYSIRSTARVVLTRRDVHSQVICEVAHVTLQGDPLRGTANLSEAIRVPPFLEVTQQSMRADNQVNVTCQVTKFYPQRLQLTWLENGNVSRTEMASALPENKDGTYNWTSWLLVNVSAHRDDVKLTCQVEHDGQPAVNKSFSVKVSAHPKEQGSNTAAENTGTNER
Method: as §2

[7] = biological target: human SIRPβ1v1 (huSIRPβ1v1) (human) (UniProt O00241); experiment: ELISA, antigen coated
Chain of human SIRPβ1v1 (huSIRPβ1v1) (human) (O00241 30-371): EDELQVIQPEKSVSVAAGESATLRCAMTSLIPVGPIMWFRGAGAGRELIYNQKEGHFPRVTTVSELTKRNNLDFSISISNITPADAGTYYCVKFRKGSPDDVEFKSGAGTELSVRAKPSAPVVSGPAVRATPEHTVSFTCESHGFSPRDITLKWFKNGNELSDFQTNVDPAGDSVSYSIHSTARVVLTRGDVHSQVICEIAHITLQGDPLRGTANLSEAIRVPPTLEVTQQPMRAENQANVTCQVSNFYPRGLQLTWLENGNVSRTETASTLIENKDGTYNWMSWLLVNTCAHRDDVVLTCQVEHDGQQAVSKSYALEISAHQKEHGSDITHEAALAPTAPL

[8] = biological target: human SIRPαBIT (huSIRPαBIT), protein antigen (human) (UniProt P78324); experiment: ELISA, antigen coated
Chain of human SIRPαBIT (huSIRPαBIT), protein antigen (human) (P78324 31-370): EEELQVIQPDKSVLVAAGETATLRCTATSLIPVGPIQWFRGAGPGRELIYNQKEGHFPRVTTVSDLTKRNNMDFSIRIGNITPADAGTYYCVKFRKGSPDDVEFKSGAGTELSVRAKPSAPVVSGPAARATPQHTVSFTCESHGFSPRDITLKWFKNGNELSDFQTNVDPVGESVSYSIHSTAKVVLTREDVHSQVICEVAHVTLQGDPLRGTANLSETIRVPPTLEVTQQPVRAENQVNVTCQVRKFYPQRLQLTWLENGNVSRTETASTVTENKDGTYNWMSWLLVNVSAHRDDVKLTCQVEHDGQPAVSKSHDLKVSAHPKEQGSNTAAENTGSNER

[9] = biological target: human SIRPαBIT (huSIRPαBIT), protein antigen (human) (UniProt P78324); experiment: SPR, biotinylated antigen captured, 25 C
[10] = biological target: human SIRPαBIT expressed on cells (human) (UniProt P78324); experiment: flow cytometry, U937 cells
Chain of human SIRPαBIT expressed on cells (human) (P78324 31-504): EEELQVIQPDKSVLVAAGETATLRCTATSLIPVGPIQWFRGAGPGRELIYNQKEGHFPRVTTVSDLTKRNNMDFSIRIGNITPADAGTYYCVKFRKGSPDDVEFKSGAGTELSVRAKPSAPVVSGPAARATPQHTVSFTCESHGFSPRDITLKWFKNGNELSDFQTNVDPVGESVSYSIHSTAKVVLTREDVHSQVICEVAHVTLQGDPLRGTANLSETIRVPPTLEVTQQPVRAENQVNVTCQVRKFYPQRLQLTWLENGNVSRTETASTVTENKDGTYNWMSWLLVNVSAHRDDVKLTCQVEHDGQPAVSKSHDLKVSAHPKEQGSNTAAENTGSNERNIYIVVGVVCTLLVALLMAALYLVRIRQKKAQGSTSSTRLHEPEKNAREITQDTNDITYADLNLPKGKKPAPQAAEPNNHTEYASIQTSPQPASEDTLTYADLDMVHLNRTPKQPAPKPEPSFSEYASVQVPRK

[11] = biological target: human SIRPαBIT expressed on cells (human) (UniProt P78324); experiment: flow cytometry, ExpiCHO-S cells
[12] = biological target: T5, cynomolgus SIRPα expressed on cells (cynomolgus monkey, UniProt A0A2K5VYQ9 31-507); experiment: flow cytometry, ExpiCHO-S cells
T5 construct: whole, on cells; also called ExpiCHO-S (cySIRPα)
T5 sequence: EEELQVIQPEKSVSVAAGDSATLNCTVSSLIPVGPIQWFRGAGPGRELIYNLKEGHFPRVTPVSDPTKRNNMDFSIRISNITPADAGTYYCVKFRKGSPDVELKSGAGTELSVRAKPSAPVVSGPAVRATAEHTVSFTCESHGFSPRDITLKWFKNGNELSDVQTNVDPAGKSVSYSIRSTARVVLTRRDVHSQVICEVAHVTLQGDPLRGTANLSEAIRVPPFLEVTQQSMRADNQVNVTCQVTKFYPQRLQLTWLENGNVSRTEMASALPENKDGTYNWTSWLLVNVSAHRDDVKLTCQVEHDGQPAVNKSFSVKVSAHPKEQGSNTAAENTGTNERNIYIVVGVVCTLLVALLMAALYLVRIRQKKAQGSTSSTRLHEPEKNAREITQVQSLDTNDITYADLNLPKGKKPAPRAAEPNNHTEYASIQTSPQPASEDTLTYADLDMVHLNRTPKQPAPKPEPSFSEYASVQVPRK
Source text: (§3) Flow Cytometry: U937 cells endogenously expressing human SIRPαBIT antigen and cells derived from a non-engineered subclone that has been screened and isolated from CHO-S Chinese hamster ovary cells (ExpiCHO-S) cells expressing human SIRPα₁, SIRPαBIT or cySIRPα antigen (100,000 cells/well in a 96-well plate) were washed three times with ice-cold FACS buffer (1×PBS (LONZA) containing 0.2% v/w BSA (Sigma-Aldrich, St. Louis, Mo.) and 0.02% v/w NaN₃ (Sigma-Aldrich), followed by the addition of a concentration range of each primary mAb (50 μL/well) diluted in ice-cold FACS buffer. After an incubation time of 30 min at 4° C., the cells were washed three times with ice-cold FACS buffer and 50 μL/well secondary mAb (AffiniPure F(ab′)₂ fragment Goat-anti-human IgG-APC, 1:6,000 dilution, Jackson Immuno Research) was added. After 30 min at 4° C., cells were washed twice and resuspended in 150 μL FACS buffer. Fluorescence intensities were determined by flow cytometry (BD FACSVerse, Franklin Lakes, N.J.) and indicated as the median fluorescence intensity (MFI-Median) for U937 cells and ExpiCHO-S cells. Curves were fitted by nonlinear regression using the sigmoidal dose-response equation with variable slope (four parameters) in GraphPad Prism (version 7.02 for Windows, GraphPad, San Diego, Calif.). EC₅₀ values were calculated as the concentration in μg/mL that gives a response half way between bottom and top of the curve, when using a 4-parameter logistic fit.

[13] = biological target: T6, human SIRPα1 expressed on cells (human, UniProt P78324 31-504); experiment: flow cytometry, ExpiCHO-S cells
T6 construct: whole, on cells; also called ExpiCHO-S (huSIRPα1); CHO cells expressing huSIRPα1
T6 sequence (P78324 other isoform, or with tags, fused parts or gaps limits assumed): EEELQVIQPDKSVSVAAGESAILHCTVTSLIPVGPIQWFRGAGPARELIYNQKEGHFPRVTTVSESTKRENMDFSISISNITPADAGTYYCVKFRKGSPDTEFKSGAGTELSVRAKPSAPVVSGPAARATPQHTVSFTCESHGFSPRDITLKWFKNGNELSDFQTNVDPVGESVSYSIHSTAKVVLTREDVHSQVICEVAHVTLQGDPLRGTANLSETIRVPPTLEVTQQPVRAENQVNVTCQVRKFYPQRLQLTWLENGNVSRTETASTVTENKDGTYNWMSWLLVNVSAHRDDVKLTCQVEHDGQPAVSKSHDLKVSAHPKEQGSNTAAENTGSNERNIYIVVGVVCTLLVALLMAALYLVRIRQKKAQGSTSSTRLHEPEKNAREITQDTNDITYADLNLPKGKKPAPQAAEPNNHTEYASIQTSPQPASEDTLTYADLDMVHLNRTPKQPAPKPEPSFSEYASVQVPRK
Source text: as §3

T1 sequence (Q9P1W8 29-360 limits assumed): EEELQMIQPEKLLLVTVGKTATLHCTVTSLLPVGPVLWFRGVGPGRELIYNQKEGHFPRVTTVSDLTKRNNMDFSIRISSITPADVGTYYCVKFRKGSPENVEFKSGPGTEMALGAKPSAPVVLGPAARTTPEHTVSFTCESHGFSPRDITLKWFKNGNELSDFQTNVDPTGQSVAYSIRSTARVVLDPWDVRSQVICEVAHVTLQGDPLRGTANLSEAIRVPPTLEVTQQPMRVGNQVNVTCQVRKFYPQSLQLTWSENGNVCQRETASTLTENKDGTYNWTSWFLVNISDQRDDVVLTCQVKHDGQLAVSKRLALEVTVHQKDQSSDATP

B1: 12C4huIgG1LALA (antibody, V domains shown)
VH: EVKLEESGGGLMQPGGSMKLSCVASGFTFSNYWMNWVRQSPEKGLEWVAEIRLKSNNYATHYAESVKGRFTISRDDSKSSVYLQMNNLRAEDTGIYYCIRDYDYDAYFDYWGQGTTLTVSS
VL: DIVLTQSPASLAVSLGQRATISCRASKSVSTSGYNYMYWYQQKPGQPPKLLIYLASNLESGVPARFSGSGSGTDFTLNIHPVEEEDAATYYCQHSGELPYTFGGGTKLEIKR
notes: HAVT20 leader left out; also called 12C4LALA; huIgG112C4LALA
Kd (human SIRPγ (huSIRPγ) [1]): 16 pM
Kd [2]: 87 pM
EC50 (human SIRPγ (huSIRPγ) [3]): 0.006 µg/mL
EC50 [4]: 0.006 µg/mL
EC50 [5]: 0.007 µg/mL
EC50 [6]: 0.005 µg/mL
EC50 [7]: 0.008 µg/mL
EC50 [8]: 0.005 µg/mL
Kd [9]: 15 pM
EC50 [10]: 0.19 µg/mL

B2: anti-SIRPα antibody 4 (antibody, human IgG1, kappa, L234A L235A, V domains shown)
VH: QSVEESGGRLGTPGTPLTLTCTVSGFSLSSYVMGWFRQAPGKGLEYIGIISSSGSPYYASWVNGRFTISKTSTTMDLKMNSPTTEDTATYFCARVGPLGVDYFNIWGPGTLVTVSL
VL: DIVMTQTPSSVEAAVGGTVTIKCQAGQSINSYLAWYQQKPGQRPKLLIYYASTLESGVPSRFKGSGSGTDYTLTISDLESADAATYYCQSWHYISRSYAFGGGTEVVVKR
notes: Chimeric: rabbit variable regions on human IgG1 LALA / kappa; also called chimeric antibody 4
Kd [2]: 26 pM
EC50 (human SIRPγ (huSIRPγ) [3]): > 100 µg/mL
EC50 [4]: 0.092 µg/mL
EC50 [5]: 0.053 µg/mL
EC50 [6]: 0.099 µg/mL
EC50 [7]: > 100 µg/mL
EC50 [8]: 0.025 µg/mL
Kd [9]: < 10 pM
EC50 [10]: 0.12 µg/mL
EC50 [11]: 0.23 µg/mL
EC50 [12]: 0.18 µg/mL
EC50 [13]: 0.41 µg/mL

B4: anti-SIRPα antibody 2 (antibody, human IgG1, kappa, L234A L235A, V domains shown)
VH: QSVEESGGRLVTPGTPLTLTCTVSGFSLSNYAMHWVRQAPGKGLEWIGIIYTGGATSYATWAKGQFTISKTSTTVDLKITSPTTEDTATYFCARGDRDGYAYFNIWGPGTLVTVSL
VL: QIVMTQTPFSVSAVVGGTVTIKCQASHNIGSWLAWYQQKPGQRPKLLIYDASTLASGVSSRFKGSGSGTEFTLTISGVESADAATYYCQQGYGISYVHNVFGGGTEVVVKR
notes: Rabbit variable regions on human IgG1 LALA / kappa
EC50 (human SIRPγ (huSIRPγ) [3]): > 100 µg/mL
EC50 [4]: 0.028 µg/mL
EC50 [5]: 0.033 µg/mL
EC50 [6]: 0.038 µg/mL
EC50 [7]: > 100 µg/mL
EC50 [8]: 0.027 µg/mL
EC50 [10]: 0.14 µg/mL
EC50 [11]: 0.27 µg/mL
EC50 [12]: 0.16 µg/mL
EC50 [13]: 0.19 µg/mL

B5: anti-SIRPα antibody 5 (antibody, human IgG1, kappa, L234A L235A, V domains shown)
VH: QSVEESGGRLVTPGTPLTLTCTVSGFSLSSYVMGWFRQAAGKGLEYIGYINADGSPYYATWVNGRFTISKTPTTMDLKINSPTTEDTATYFCARVGPLGVDYFNIWGPGTLVTVSL
VL: DIVMTQTPASVEAAVGGTVTIKCQASQSINRYLTWYQQKPGQRPKLLIYYASTLESGVPSRFEGSGSGTDYTLTISDLESADAATYYCQSYYYISRTYAFGGGTEVVVKR
notes: as for B4
EC50 (human SIRPγ (huSIRPγ) [3]): > 100 µg/mL
EC50 [4]: 0.11 µg/mL
EC50 [5]: 0.031 µg/mL
EC50 [6]: 0.123 µg/mL
EC50 [7]: 3.52 µg/mL
EC50 [8]: 0.021 µg/mL
EC50 [10]: 0.16 µg/mL
EC50 [11]: 0.22 µg/mL
EC50 [12]: 0.26 µg/mL
EC50 [13]: 0.27 µg/mL

More lines, now with the values ahead:

binding result (human SIRPγ (huSIRPγ) [1]): no binding
Kd [2]: 59 pM
Kd [9]: < 10 pM
EC50 [10]: 0.2 µg/mL
EC50 [11]: 0.46 µg/mL
EC50 [12]: 0.17 µg/mL
EC50 [13]: 0.1 µg/mL
B3: anti-SIRPα antibody 12 humanized (antibody, human IgG1, kappa, L234A L235A, V domains shown)
VH: VQLVESGGRLVQPGTPLTLSCTVSGFSLSSYVMGWFRQAPGKGLEYIGIISSSGSPYYASWVNGRFTISKTSTTMDLKMNSLRSEDTATYFCARVGPLGVDYFNIWGPGTLVTVSS
VL: DIVMTQTPSSVEAAVGGTVTIKCQAGQSINSYLAWYQQKPGQRPKLLIYYASTLESGVPSRFKGSGSGTDYTLTISDLESADAATYYCQSWHYISRSYAFGGGTEVVVKR
notes: Humanized, human IgG1 LALA / kappa

EC50 (human SIRPγ (huSIRPγ) [3]): > 100 µg/mL
EC50 [4]: 0.019 µg/mL
EC50 [5]: 0.019 µg/mL
EC50 [6]: 0.026 µg/mL
EC50 [7]: > 100 µg/mL
EC50 [8]: 0.02 µg/mL
EC50 [10]: 0.12 µg/mL
EC50 [11]: 0.18 µg/mL
EC50 [12]: 0.15 µg/mL
EC50 [13]: 0.22 µg/mL
B6: anti-SIRPα antibody 8 (antibody, human IgG1, kappa, L234A L235A, V domains shown)
VH: QSLEESGGRLVTPGTPLTLTCTASGVDLSNYAMGWVRQAPGKGLEWIGIIYAGGSTSYATWAKGRFTISKTSTTMDLKMTSPTTEDTATYFCARHRSDGYDYFHLWGPGTLVTVSL
VL: AIDMTQTPASVSEPVGGTVTIKCQASQSISSWLAWYQQKPGQRPKLLIYDASKLASGVPSRFSGSGSGTEFTLTISGVQSDDAAAYYCQQGYAVSYVENIFGGGTEVVVKR
notes: as for B4
